Test results reported in IntAct's records for PubMed 31515488.

B1: 5'-AMP-activated protein kinase subunit beta-2 (Homo sapiens), O43741 (parent)
chain: MGNTTSDRVSGERHGAKAARSEGAGGHAPGKEHKIMVGSTDDPSVFSLPDSKLPGDKEFVSWQQDLEDSVKPTQQARPTVIRWSEGGKEVFISGSFNNWSTKIPLIKSHNDFVAILDLPEGEHQYKFFVDGQWVHDPSEPVVTSQLGTINNLIHVKKSDFEVFDALKLDSMESSETSCRDLSSSPPGPYGQEMYAFRSEERFKSPPILPPHLLQVILNKDTNISCDPALLPEPNHVMLNHLYALSIKDSVMVLSATHRYKKKYVTTLLYKPI
B2: PDZ and LIM domain protein 1 (Homo sapiens), O00151 (parent)
chain: MTTQQIDLQGPGPWGFRLVGGKDFEQPLAISRVTPGSKAALANLCIGDVITAIDGENTSNMTHLEAQNRIKGCTDNLTLTVARSEHKVWSPLVTEEGKRHPYKMNLASEPQEVLHIGSAHNRSAMPFTASPASSTTARVITNQYNNPAGLYSSENISNFNNALESKTAASGVEANSRPLDHAQPPSSLVIDKESEVYKMLQEKQELNEPPKQSTSFLVLQEILESEEKGDPNKPSGFRSVKAPVTKVAASIGNAQKLPMCDKCGTGIVGVFVKLRDRHRHPECYVCTDCGTNLKQKGHFFVEDQIYCEKHARERVTPPEGYEVVTVFPK
B3: Notch homolog 2 N-terminal-like protein A (Homo sapiens), Q7Z3S9 (parent)
chain: MCVTYHNGTGYCKCPEGFLGEYCQHRDPCEKNRCQNGGTCVAQAMLGKATCRCASGFTGEDCQYSTSHPCFVSRPCLNGGTCHMLSRDTYECTCQVGFTGKECQWTDACLSHPCANGSTCTTVANQFSCKCLTGFTGQKCETDVNECDIPGHCQHGGTCLNLPGSYQCQCLQGFTGQYCDSLYVPCAPSPCVNGGTCRQTGDFTFECNCLPETVRRGTELWERDREVWNGKEHDEN
partner: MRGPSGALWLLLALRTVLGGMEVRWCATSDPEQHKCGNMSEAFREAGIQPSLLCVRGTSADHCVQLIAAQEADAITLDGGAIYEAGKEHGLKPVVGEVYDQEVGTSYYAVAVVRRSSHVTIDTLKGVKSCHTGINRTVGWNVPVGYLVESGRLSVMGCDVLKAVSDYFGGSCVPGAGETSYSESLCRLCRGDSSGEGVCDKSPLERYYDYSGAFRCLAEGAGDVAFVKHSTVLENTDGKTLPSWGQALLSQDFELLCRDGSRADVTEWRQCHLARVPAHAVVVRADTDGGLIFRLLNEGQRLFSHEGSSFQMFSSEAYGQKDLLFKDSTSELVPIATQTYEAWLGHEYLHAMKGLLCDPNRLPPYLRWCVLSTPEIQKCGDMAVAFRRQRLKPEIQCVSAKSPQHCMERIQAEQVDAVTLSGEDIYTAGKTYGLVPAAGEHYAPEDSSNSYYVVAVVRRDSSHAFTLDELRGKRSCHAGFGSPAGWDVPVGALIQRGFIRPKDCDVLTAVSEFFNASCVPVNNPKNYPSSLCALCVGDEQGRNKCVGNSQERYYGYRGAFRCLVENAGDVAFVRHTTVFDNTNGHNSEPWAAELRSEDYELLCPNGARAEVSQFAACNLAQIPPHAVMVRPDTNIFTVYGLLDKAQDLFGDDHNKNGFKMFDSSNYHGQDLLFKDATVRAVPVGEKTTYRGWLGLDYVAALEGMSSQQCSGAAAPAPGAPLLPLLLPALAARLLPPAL
B4: Rho guanine nucleotide exchange factor 39 (Homo sapiens), Q8N4T4 (parent)
chain: MELSCPGSRCPVQEQRARWERKRACTARELLETERRYQEQLGLVATYFLGILKAKGTLRPPERQALFGSWELIYGASQELLPYLEGGCWGQGLEGFCRHLELYNQFAANSERSQTTLQEQLKKNKGFRRFVRLQEGRPEFGGLQLQDLLPLPLQRLQQYENLVVALAENTGPNSPDHQQLTRAARLISETAQRVHTIGQKQKNDQHLRRVQALLSGRQAKGLTSGRWFLRQGWLLVVPPHGEPRPRMFFLFTDVLLMAKPRPPLHLLRSGTFACKALYPMAQCHLSRVFGHSGGPCGGLLSLSFPHEKLLLMSTDQEELSRWYHSLTWAISSQKN
partner: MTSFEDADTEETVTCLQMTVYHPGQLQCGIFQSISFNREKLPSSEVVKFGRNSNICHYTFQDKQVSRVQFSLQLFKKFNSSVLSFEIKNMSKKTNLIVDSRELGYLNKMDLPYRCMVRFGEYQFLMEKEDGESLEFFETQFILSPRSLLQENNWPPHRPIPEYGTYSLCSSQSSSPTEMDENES
B5: Segment polarity protein dishevelled homolog DVL-2 (Homo sapiens), O14641 (parent)
chain: MAGSSTGGGGVGETKVIYHLDEEETPYLVKIPVPAERITLGDFKSVLQRPAGAKYFFKSMDQDFGVVKEEISDDNARLPCFNGRVVSWLVSSDNPQPEMAPPVHEPRAELAPPAPPLPPLPPERTSGIGDSRPPSFHPNVSSSHENLEPETETESVVSLRRERPRRRDSSEHGAGGHRTGGPSRLERHLAGYESSSTLMTSELESTSLGDSDEEDTMSRFSSSTEQSSASRLLKRHRRRRKQRPPRLERTSSFSSVTDSTMSLNIITVTLNMEKYNFLGISIVGQSNERGDGGIYIGSIMKGGAVAADGRIEPGDMLLQVNDMNFENMSNDDAVRVLRDIVHKPGPIVLTVAKCWDPSPQAYFTLPRNEPIQPIDPAAWVSHSAALTGTFPAYPGSSSMSTITSGSSLPDGCEGRGLSVHTDMASVTKAMAAPESGLEVRDRMWLKITIPNAFLGSDVVDWLYHHVEGFPERREARKYASGLLKAGLIRHTVNKITFSEQCYYVFGDLSGGCESYLVNLSLNDNDGSSGASDQDTLAPLPGATPWPLLPTFSYQYPAPHPYSPQPPPYHELSSYTYGGGSASSQHSEGSRSSGSTRSDGGAGRTGRPEERAPESKSGSGSESEPSSRGGSLRRGGEASGTSDGGPPPSRGSTGGAPNLRAHPGLHPYGPPPGMALPYNPMMVVMMPPPPPPVPPAVQPPGAPPVRDLGSVPPELTASRQSFHMAMGNPSEFFVDVM
partner: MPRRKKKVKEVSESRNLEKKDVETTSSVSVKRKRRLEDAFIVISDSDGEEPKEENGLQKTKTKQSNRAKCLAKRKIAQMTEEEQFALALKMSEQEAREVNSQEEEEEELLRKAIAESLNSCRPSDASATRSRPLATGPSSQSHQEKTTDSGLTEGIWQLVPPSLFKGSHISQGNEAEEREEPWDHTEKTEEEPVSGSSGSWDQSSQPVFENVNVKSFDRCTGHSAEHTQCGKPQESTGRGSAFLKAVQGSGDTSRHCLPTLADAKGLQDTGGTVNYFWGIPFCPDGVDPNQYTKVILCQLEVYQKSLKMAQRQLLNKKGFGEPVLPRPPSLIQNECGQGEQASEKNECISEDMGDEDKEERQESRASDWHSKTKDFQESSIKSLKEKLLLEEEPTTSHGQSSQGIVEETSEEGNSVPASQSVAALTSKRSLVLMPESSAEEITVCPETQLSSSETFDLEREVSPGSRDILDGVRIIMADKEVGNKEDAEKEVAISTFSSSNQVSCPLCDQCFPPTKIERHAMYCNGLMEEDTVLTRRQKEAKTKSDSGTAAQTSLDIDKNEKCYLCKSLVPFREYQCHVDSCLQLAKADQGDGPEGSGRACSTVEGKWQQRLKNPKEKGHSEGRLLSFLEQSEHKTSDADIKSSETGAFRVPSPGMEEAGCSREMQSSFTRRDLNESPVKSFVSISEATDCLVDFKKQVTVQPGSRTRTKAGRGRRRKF
B6: N-chimaerin (Homo sapiens), P15882 (parent)
chain: MALTLFDTDEYRPPVWKSYLYQLQQEAPHPRRITCTCEVENRPKYYGREFHGMISREAADQLLIVAEGSYLIRESQRQPGTYTLALRFGSQTRNFRLYYDGKHFVGEKRFESIHDLVTDGLITLYIETKAAEYIAKMTINPIYEHVGYTTLNREPAYKKHMPVLKETHDERDSTGQDGVSEKRLTSLVRRATLKENEQIPKYEKIHNFKVHTFRGPHWCEYCANFMWGLIAQGVKCADCGLNVHKQCSKMVPNDCKPDLKHVKKVYSCDLTTLVKAHTTKRPMVVDMCIREIESRGLNSEGLYRVSGFSDLIEDVKMAFDRDGEKADISVNMYEDINIITGALKLYFRDLPIPLITYDAYPKFIESAKIMDPDEQLETLHEALKLLPPAHCETLRYLMAHLKRVTLHEKENLMNAENLGIVFGPTLMRSPELDAMAALNDIRYQRLVVELLIKNEDILF

Variants of: B1
Details: with oxda_human DAO

effect of a mutation on the interaction	Variant
with no effect	G55E

Variants of: B1
Details: with mdfi_human MDFI

effect of a mutation on the interaction	Variant
with no effect	G55E

Variants of: B1
Details: with crx_human CRX

effect of a mutation on the interaction	Variant
with no effect	G55E

Variants of: B1
Details: with cdx4_human CDX4, O14627
Sequence of cdx4_human CDX4, O14627 (O14627 whole entry): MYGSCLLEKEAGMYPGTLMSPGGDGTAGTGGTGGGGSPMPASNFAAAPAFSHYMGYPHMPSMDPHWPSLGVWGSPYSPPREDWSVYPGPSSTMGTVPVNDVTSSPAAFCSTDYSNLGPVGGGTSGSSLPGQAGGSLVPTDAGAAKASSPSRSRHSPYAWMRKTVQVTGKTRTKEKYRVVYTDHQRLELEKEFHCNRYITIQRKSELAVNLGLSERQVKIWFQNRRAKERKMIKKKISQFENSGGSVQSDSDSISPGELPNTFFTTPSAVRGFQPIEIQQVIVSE

effect of a mutation on the interaction	Variant
with no effect	G55E

Variants of: B2
Details: with gfap_human GFAP

effect of a mutation on the interaction	Variant
with no effect	N175S

Variants of: B3
Details: with trfm_human MELTF

effect of a mutation on the interaction	Variant
with no effect	A115T
with no effect	R74Q

Variants of: B4
Details: with tifa_human TIFA

effect of a mutation on the interaction	Variant
with no effect	R230C
with no effect	D204N

Variants of: B5
Details: with uimc1_human UIMC1, Q96RL1

effect of a mutation on the interaction	Variant
with no effect	R415Q

Variants of: B6
Details: with nck2_human NCK2, O43639
Sequence of nck2_human NCK2, O43639 (O43639 whole entry): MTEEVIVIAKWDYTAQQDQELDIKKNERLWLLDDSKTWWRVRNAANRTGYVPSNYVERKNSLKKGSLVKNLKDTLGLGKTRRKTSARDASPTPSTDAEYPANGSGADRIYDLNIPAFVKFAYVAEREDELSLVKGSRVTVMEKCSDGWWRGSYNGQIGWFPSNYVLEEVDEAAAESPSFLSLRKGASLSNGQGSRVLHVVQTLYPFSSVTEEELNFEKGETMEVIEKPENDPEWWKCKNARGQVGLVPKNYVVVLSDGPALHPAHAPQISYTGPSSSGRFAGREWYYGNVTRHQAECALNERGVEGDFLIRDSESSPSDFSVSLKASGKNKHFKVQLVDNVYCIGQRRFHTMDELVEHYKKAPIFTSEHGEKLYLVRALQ

effect of a mutation on the interaction	Variant
with no effect	D115N
